Columns and labels:
[1] = system: RdhK1 (CprK4) (Desulfitobacterium hafniense DCB-2); assay: EMSA; conditions: no effector; EMSA: 100 ng DNA, 2 uM protein, 200 uM effector, 15 uL; buffer 100 mM Tris-HCl pH 8.5, 40% glycerol, 10 mM MgCl2, 500 mM NaCl, 5 mM EDTA, 10 mM DTT …
[2] = molecular target: RdhK6 (CprK1) (Desulfitobacterium hafniense DCB-2) (UniProt Q18R04); assay: EMSA; conditions: 200 uM Cl-OHPA; EMSA: 100 ng DNA, 2 uM protein, 200 uM effector, 15 uL; buffer 100 mM Tris-HCl pH 8.5, 40% glycerol, 10 mM MgCl2, 500 mM NaCl, 5 mM EDTA, 10 mM DTT …

Sequence	binding signal [1]	binding signal [2]
GAATTCTCAGGCGATGTAACCGCTTTCAAAGTTAATACACATTAATACTCTTAACAATGTGATAGCTATGATTGCACCG (double strand) [mgl-DB7]	10 % DNA bound	100 % DNA bound
GAATTCTCAGGCGATGTAACCGCTTTCAAATTTAGTATACGCTAAATATCTTAACAATGTGATAGCTATGATTGCACCG (double strand) [mgl-DB8]	80 % DNA bound	100 % DNA bound

— PMC7062800
